# Reference: patent US20070258988A1 (SLOAN KETTERING INSTITUTE FOR CANCER RESEARCH, published 2007)
# Experiments:
# [1] = target: hMOR-1 (human, UniProt P35372 1-400); test: cell-based or functional assay
# [2] = target: hMOR-1 (exons 1-3) (human, UniProt P35372 1-388); test: cell-based or functional assay
# [3] = target: hMOR-1A (human); test: cell-based or functional assay
# [4] = target: hMOR-1B1 (human, UniProt P35372 1-388); test: cell-based or functional assay
# [5] = target: hMOR-1B2 (human, UniProt P35372 1-388); test: cell-based or functional assay
# [6] = target: hMOR-1B3 (human, UniProt P35372 1-388); test: cell-based or functional assay
# [7] = target: hMOR-1B4 (human, UniProt P35372 1-388); test: cell-based or functional assay
# [8] = target: hMOR-1B5 (human, UniProt P35372 1-388); test: cell-based or functional assay
# [9] = target: hMOR-1Y (human, UniProt P35372 1-388); test: cell-based or functional assay
# [10] = target: T1, rMOR-1A (rat); test: cell-based or functional assay
# T1 chain: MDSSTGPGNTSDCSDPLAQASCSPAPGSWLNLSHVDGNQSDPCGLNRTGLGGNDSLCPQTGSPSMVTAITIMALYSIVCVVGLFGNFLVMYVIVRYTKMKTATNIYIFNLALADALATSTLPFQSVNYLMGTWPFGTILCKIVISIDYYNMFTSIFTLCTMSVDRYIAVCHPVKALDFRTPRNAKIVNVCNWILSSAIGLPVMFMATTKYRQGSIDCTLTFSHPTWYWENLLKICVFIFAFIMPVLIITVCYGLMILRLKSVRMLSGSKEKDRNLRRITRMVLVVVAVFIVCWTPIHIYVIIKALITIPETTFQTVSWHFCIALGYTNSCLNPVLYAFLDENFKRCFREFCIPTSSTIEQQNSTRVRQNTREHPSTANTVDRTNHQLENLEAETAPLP
# [11] = target: rMOR-1 (rat, UniProt P33535 1-398); test: cell-based or functional assay
# [12] = target: T2, rMOR-1 (no Exon 4) (rat, UniProt P33535 1-386, limits assumed); test: cell-based or functional assay
# [13] = target: rMOR-1C1 (rat); test: cell-based or functional assay
# [14] = target: rMOR-1D (rat); test: cell-based or functional assay
# [15] = target: T1, rMOR-1A; test: competition against [3H]DAMGO (~1 nM), membranes of stable CHO transfectants
# Protocol: (§1) ANOVA was performed, followed by Tukey's post hoc analysis. Results are the mean ±S.E. of at least three independent determinations.
# [16] = target: T2, rMOR-1 (no Exon 4); test: as above
# Protocol: as §1
# [17] = target: T3, rMOR-1C1 (rat); test: as above
# T3 construct: whole, on cells
# Protocol: as §1
# [18] = target: T4, rMOR-1D (rat); test: as above
# T4 construct: whole, on cells
# Protocol: as §1
binder,measurement,setting,value
"YGGFMTSEKSQTPLVTLFKNAIIKNAYKKGE (peptide, UniProt P01189 237-267, looked up, also called B-Endorphin) [β-Endorphin]",Max Inhib (%),[1],79%
same,Max Inhib (%),[2],73%
same,Max Inhib (%),[3],73%
same,Max Inhib (%),[4],65%
same,Max Inhib (%),[5],65%
same,Max Inhib (%),[6],73%
same,Max Inhib (%),[7],69%
same,Max Inhib (%),[8],69%
same,Max Inhib (%),[9],90%
same,Max Stim (%),[10],177%
same,"EC50 (nM), stimulation of [35S]GTPγS binding",[11],4 nM
same,Max Stim (%),[11],246%
same,"EC50 (nM), stimulation of [35S]GTPγS binding",[12],90 nM
same,Max Stim (%),[12],240%
same,Max Stim (%),[13],361%
same,"EC50 (nM), stimulation of [35S]GTPγS binding",[14],91 nM
same,Max Stim (%),[14],165%
same,Ki,[15],10.5 nM
same,Ki,[16],10 nM
same,Ki,[17],8.8 nM
same,Ki,[18],8.5 nM
